Data on one protein can be found in article PMC3595323 (Proteins, 2013).

This data set deals with the molecule itself. The data set is described as follows: crystal structure.

B1: Thermoplasma acidophilum nucleoside kinase Ta0880, crystallization construct (E112A, K113A, K115A) (enzyme, UniProt Q9HJT3 1-287, looked up)
chain: MRFLAYFGHLNIDVLISVDSIPREGSVNVKDLRPRFGGTAGNFAIVAQKFRIPFDLYSAVGMKTHREYLAMIESMGINTGHVEKFEDESGPICYIATDGKKQVSFMHQGAMAAWAPQLADEYEYVHFSTGPNYLDMAKSIRSKIIFDPSQEIHKYSKDELKKFHEISYMSIFNDHEYRVFREMTGLSSPKVTTIVTNGERGSSLFMDGKKYDFPAIPSSGDTVGAGDSFRAGLYLALYNRRSIEKGMIYGTIIAHHVIDDGIENFSLNMEDLERETENYRRMFTKRS
modifications: selenomethionine (expressed in selenomethionine-containing medium with suppression of normal methionine synthesis)
On to B1, for which the binding result is listed as “binds”.
